Laboratory results published in US20080050387A1 (published 2008).

Legend:
[1] = molecular target: T1, ARA70 (UniProt Q13772 1-614, limits assumed); assay: CytoTrap Sos yeast two-hybrid, growth of cdc25H on SD/Gal(-LU) at 37° C
T1 construct: also called pSos-ARA70; pSos-APA70
T1 sequence (looked up): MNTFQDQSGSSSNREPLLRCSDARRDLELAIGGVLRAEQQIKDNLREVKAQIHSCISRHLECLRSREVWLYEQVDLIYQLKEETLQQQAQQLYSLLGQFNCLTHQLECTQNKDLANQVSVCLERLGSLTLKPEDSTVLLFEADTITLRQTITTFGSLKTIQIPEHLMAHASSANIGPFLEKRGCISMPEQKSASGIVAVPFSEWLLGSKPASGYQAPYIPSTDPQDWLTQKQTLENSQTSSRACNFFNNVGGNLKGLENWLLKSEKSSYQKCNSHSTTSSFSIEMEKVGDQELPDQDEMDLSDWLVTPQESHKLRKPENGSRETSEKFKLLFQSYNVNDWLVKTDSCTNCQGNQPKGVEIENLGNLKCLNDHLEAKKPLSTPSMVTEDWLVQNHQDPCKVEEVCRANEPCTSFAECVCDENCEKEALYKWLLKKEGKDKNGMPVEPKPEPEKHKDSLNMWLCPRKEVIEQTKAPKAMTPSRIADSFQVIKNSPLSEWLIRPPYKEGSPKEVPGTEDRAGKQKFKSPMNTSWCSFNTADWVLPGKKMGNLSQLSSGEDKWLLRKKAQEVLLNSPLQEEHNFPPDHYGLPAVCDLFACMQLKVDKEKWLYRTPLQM

[2] = molecular target: T2, testicular receptor 4 (TR4) (Homo sapiens (Human), UniProt P49116 1-596, limits assumed); assay: as above
T2 construct: hSos fusion (pSos-TR4) in yeast; also called pSos-TR4
T2 sequence: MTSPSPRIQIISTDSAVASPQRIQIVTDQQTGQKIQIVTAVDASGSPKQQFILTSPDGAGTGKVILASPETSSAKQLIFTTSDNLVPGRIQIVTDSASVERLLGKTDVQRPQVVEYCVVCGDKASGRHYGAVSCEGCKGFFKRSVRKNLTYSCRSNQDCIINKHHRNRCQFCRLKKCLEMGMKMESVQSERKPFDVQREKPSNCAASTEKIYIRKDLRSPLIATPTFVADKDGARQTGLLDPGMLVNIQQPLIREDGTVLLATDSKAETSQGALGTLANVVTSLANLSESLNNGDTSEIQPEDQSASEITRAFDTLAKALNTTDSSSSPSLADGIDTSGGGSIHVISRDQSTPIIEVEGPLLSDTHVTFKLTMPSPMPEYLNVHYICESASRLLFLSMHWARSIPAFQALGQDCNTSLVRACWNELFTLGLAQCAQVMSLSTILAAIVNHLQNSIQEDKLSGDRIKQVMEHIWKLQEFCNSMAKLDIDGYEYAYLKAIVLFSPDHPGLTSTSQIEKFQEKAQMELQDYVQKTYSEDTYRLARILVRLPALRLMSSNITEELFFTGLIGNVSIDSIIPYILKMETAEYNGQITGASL

B1: ARA67 clone of the CytoTrap screen, amino acids 20-585 of PAT1 (pMyr-ARA67) (other)
chain: AVVDNYIRSRRDIRSLPENIQFDVYYKLYQQGRLCQLGSEFCELEVFAKVLRALDKRHLLHHCFQALMDHGVKVASVLAYSFSRRCSYIAESDAAVKEKAIQVGFVLGGFLSDAGWYSDAEKVFLSCLQLCTLHDEMLHWFRAVECCVRLLHVRNGNCKYHLGEETFKLAQTYMDKLSKHGQQANKAALYGELCALLFAKSHYDEAYKWCIEAMKEITAGLPVKVVVDVLRQASKACVVKREFKKAEQLIKHAVYLARDHFGSKHPKYSDTLLDYGFYLLNVDNICQSVAIYQAALDIRQSVFGGKNIHVATAHEDLAYSSYVHQYSSGKFDNALFHAERAIGIITHILPEDHLLLASSKRVKALILEEIAIDCHNKETEQRLLQEAHDLHLSSLQLAKKAFGEFNVQTAKHYGNLGRLYQSMRKFKEAEEMHIKAIQIKEQLLGQEDYEVALSVGHLASLYNYDMNQYENAEKLYLRSIAIGKKLFGEGYSGLEYDYRGLIKLYNSIGNYEKVFEYHNVLSNWNRLRDRQYSVTDALEDVSTSPQSTEEVVQSFLISQNVEGPSC
notes: The clone matched the DNA encoding aa 20-585 of PAT1 at 99.6% identity; also called pMyr-ARA67/PAT1
B1: no binding [1]; no binding [2].
